Ends that are not written are not given here.
How the values were obtained:
Assay in all cases: cell-based or functional assay
human RXFP1 receptor [1] = target: T1, human RXFP1 receptor (human, UniProt Q9HBX9 1-757)
T1 sequence (looked up): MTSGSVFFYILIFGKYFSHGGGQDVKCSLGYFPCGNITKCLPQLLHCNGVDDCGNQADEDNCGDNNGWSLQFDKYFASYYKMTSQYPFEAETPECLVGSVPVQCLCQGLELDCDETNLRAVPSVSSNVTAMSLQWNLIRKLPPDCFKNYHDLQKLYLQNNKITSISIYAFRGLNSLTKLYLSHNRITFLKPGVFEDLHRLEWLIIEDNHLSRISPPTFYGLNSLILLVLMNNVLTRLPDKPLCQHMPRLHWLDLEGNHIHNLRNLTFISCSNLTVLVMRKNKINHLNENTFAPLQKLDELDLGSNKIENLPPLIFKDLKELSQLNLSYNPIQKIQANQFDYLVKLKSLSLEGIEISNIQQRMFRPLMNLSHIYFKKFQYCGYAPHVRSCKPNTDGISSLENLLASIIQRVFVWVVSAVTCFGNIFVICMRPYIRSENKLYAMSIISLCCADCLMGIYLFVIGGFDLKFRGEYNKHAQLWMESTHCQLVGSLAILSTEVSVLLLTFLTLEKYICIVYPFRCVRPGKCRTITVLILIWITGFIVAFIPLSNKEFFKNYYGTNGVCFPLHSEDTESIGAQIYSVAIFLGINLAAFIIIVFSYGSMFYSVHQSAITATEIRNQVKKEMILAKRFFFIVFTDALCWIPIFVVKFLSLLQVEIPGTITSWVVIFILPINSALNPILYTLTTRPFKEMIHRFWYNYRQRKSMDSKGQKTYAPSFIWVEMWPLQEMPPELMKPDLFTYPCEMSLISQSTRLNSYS

mouse RXFP1 receptor = target: T2, mouse RXFP1 receptor (mouse, UniProt Q6R6I7 1-758)
T2 sequence (looked up): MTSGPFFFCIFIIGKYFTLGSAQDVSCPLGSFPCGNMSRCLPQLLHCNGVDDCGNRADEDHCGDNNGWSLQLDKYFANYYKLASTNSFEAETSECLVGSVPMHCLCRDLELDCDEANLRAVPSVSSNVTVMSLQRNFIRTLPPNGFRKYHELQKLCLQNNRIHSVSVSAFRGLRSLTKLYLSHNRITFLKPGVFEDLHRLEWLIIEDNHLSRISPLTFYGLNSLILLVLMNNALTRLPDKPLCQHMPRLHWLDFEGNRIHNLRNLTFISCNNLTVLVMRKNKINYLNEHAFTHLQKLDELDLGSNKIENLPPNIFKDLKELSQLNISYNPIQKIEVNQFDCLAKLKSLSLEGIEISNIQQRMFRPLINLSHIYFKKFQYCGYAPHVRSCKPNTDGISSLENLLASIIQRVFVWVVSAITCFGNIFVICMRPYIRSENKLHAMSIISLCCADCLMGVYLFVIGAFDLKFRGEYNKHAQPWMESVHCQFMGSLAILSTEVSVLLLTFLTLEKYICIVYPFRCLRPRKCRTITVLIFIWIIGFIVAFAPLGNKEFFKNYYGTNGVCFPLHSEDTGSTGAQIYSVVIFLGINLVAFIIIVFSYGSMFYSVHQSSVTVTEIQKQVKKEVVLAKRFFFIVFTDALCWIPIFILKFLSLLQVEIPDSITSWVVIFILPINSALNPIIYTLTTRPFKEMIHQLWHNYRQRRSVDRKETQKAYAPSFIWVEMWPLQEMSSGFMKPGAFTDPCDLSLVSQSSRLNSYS

human RXFP2 = human RXFP2 (human, UniProt Q8WXD0 1-754)
Sequence of human RXFP2 (Q8WXD0 whole entry): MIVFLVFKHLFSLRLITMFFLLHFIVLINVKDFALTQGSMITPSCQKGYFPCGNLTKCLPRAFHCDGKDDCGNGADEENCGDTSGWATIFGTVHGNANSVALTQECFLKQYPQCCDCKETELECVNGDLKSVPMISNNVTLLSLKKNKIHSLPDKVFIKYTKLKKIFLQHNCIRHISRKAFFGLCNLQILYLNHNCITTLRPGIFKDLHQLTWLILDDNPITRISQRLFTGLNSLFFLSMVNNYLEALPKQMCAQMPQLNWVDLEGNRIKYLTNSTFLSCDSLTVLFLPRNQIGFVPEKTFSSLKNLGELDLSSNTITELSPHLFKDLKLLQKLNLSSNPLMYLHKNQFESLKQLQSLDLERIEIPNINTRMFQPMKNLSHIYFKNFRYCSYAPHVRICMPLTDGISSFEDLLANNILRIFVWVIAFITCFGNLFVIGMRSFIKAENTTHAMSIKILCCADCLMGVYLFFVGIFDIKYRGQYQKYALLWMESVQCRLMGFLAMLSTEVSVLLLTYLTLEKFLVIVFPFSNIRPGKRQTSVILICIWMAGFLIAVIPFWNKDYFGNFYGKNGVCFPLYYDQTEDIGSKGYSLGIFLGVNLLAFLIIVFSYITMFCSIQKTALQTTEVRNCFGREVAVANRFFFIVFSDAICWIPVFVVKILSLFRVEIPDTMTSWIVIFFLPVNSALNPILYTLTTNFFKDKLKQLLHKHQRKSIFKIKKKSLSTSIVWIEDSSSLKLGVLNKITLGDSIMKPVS

human RXFP1 receptor [2] = target: T1, human RXFP1 receptor; remark: listed apart in the source

| Binder | EC50 (M), stimulation of cAMP production (HitHunter cAMP assay) in CHO-K1 RXFP1 Gs cells (human RXFP1 receptor [1]) | mRXFP1 EC50 (M), cAMP HTRF assay in CHO-K1 mRXFP1 Gs cells (mouse RXFP1 receptor) | hRXFP2 EC50 (M), cAMP HTRF assay in CHO-K1 RXFP2 Gs cells (human RXFP2) | hRXFP1 EC50 (M), cAMP HTRF assay in CHO-K1 RXFP1 Gs cells (human RXFP1 receptor [2]) |
| --- | --- | --- | --- | --- |
| recombinant human Relaxin-2 (R&D Systems, catalogue number 6586-RN-025) (ligand, not fully specified (bridges); ends and bridges not checked; also: two interchain and one intrachain disulfide bonds, positions not given here) chain 1: QLYSALANKCCHVGCTKRSLARFC chain 2: DSWMEEVIKLCGRELVRAQIAICGMSTWS | 1.06e-10 M | 6.68e-11 M | 1.46e-07 M | 1.38e-10 M |
| Fc-TMΔTHTΔK_hRLX2_21-15AA (Fc fusion) GGGSACPPCPAPEFEGGPSVFLFPPKPKDTLMISRTPEVTCVVVDVSHEDPEVKFNWYVDGVEVHNAKTKPREEQYNSTYRVVSVLTVLHQDWLNGKEYKCKVSNKALPASIEKTISKAKGQPREPQVYTLPPSREEMTKNQVSLTCLVKGFYPSDIAVEWESNGQPENNYKTTPPVLDSDGSFFLYSKLTVDKSRWQQGNVFSCSVMHEALHNHYTQKSLSLSPGGGGGSGGGGSGGGGSGGGGGSQLYSALANKCCHVGCTKRSLARFCGGGGSGGGGSGGGGSSWMEEVIKLCGRELVRAQIAICGMSTWS |  | 2.52e-09 M | > 6.78e-06 M | 2.6e-09 M |
| Fc-TMΔTHTΔK_hRLX2(BA)_21-15AA (Fc fusion) GGGSACPPCPAPEFEGGPSVFLFPPKPKDTLMISRTPEVTCVVVDVSHEDPEVKFNWYVDGVEVHNAKTKPREEQYNSTYRVVSVLTVLHQDWLNGKEYKCKVSNKALPASIEKTISKAKGQPREPQVYTLPPSREEMTKNQVSLTCLVKGFYPSDIAVEWESNGQPENNYKTTPPVLDSDGSFFLYSKLTVDKSRWQQGNVFSCSVMHEALHNHYTQKSLSLSPGGGGGSGGGGSGGGGSGGGGGSSWMEEVIKLCGRELVRAQIAICGMSTWSGGGGSGGGGSGGGGSQLYSALANKCCHVGCTKRSLARFC |  | 8.82e-09 M | > 8.22e-06 M | 1.56e-08 M |
| hRLX2-Fc-TMΔTHTΔK_15-24AA (Fc fusion) QLYSALANKCCHVGCTKRSLARFCGGGGSGGGGSGGGGSSWMEEVIKLCGRELVRAQIAICGMSTWSAAAGGGGSGGGGSGGGGSGGGGSACPPCPAPEFEGGPSVFLFPPKPKDTLMISRTPEVTCVVVDVSHEDPEVKFNWYVDGVEVHNAKTKPREEQYNSTYRVVSVLTVLHQDWLNGKEYKCKVSNKALPASIEKTISKAKGQPREPQVYTLPPSREEMTKNQVSLTCLVKGFYPSDIAVEWESNGQPENNYKTTPPVLDSDGSFFLYSKLTVDKSRWQQGNVFSCSVMHEALHNHYTQKSLSLSPG |  | 2.23e-09 M | > 3.09e-07 M | 4.97e-09 M |
| hRLX2(BA)-Fc-TMΔTHTΔK_15-24AA (Fc fusion) SWMEEVIKLCGRELVRAQIAICGMSTWSGGGGSGGGGSGGGGSQLYSALANKCCHVGCTKRSLARFCAAAGGGGSGGGGSGGGGSGGGGSACPPCPAPEFEGGPSVFLFPPKPKDTLMISRTPEVTCVVVDVSHEDPEVKFNWYVDGVEVHNAKTKPREEQYNSTYRVVSVLTVLHQDWLNGKEYKCKVSNKALPASIEKTISKAKGQPREPQVYTLPPSREEMTKNQVSLTCLVKGFYPSDIAVEWESNGQPENNYKTTPPVLDSDGSFFLYSKLTVDKSRWQQGNVFSCSVMHEALHNHYTQKSLCLSPG |  | 8.78e-10 M | > 4.33e-06 M | 1.13e-09 M |
| Fc-YTE-TM_hRLX2_15-15AA (Fc fusion) DKTHTCPPCPAPEFEGGPSVFLFPPKPKDTLYITREPEVTCVVVDVSHEDPEVKFNWYVDGVEVHNAKTKPREEQYNSTYRVVSVLTVLHQDWLNGKEYKCKVSNKALPASIEKTISKAKGQPREPQVYTLPPSRDELTKNQVSLTCLVKGFYPSDIAVEWESNGQPENNYKTTPPVLDSDGSFFLYSKLTVDKSRWQQGNVFSCSVMHEALHNHYTQKSLSLSPGKGGGGSGGGGSGGGGSQLYSALANKCCHVGCTKRSLARFCGGGGSGGGGSGGGGSSWMEEVIKLCGRELVRAQIAICGMSTWS | 5.39e-09 M |  |  |  |
| Fc-YTE-FQQ_hRLX2_15-15AA (Fc fusion) DKTHTCPPCPAPEFQGGPSVFLFPPKPKDTLYITREPEVTCVVVDVSHEDPEVKFNWYVDGVEVHNAKTKPREEQYNSTYRVVSVLTVLHQDWLNGKEYKCQVSNKALPAPIEKTISKAKGQPREPQVYTLPPSRDELTKNQVSLTCLVKGFYPSDIAVEWESNGQPENNYKTTPPVLDSDGSFFLYSKLTVDKSRWQQGNVFSCSVMHEALHNHYTQKSLSLSPGKGGGGSGGGGSGGGGSQLYSALANKCCHVGCTKRSLARFCGGGGSGGGGSGGGGSSWMEEVIKLCGRELVRAQIAICGMSTWS | 4.56e-09 M |  |  |  |
